# Measurements as given in article PMC4066779.
# Tested on: GST-DDX6 (human)
# Assay: EMSA
substance,measurement,value
CUG-200 RNA,Kd,< 250 nM
